Data from US20200087367A1 (ACCELERON PHARMA, published 2020).
One block for each binder: values may come before it.

B13: BMP5 (ligand, human, UniProt P22003 317-454, looked up)
chain: AANKRKNQNRNKSSSHQDSSRMSSVGDYNTSEQKQACKKHELYVSFRDLGWQDWIIAPEGYAAFYCDGECSFPLNAHMNATNHAIVQTLVHLMFPDHVPKPCCAPTKLNAISVLYFDDSSNVILKKYRNMVVRSCGCH

How the values were obtained:
hENG(26-586) = biological target: T1, hENG(26-586) (human, UniProt P17813 26-586); test: SPR (Biacore), immobilized hENG(26-586), soluble ligand; '-' = binding undetectable
T1 construct: Bought protein, a human variant with no Fc domain; also called R&D Systems, catalog #1097-EN
T1 sequence: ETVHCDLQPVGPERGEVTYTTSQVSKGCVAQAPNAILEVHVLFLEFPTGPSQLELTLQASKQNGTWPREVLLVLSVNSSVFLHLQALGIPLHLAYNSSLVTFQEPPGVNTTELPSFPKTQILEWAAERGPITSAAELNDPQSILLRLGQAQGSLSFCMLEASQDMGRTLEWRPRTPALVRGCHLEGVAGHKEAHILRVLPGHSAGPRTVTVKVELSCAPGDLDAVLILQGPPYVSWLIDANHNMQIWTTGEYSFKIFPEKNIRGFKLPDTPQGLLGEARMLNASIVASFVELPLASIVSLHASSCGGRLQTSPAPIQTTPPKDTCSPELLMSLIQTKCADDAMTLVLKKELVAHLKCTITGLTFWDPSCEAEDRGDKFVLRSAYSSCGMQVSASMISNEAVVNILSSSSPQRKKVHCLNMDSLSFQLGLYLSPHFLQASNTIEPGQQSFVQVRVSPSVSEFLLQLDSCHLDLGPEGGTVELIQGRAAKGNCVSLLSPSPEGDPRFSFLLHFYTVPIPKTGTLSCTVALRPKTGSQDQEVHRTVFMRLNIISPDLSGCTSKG
Excerpt: Considered a co-receptor, ENG is widely thought to function by facilitating the binding of TGF-β1 and -3 to multi-protein complexes of type I and type II receptors. To investigate the possibility of direct ligand binding by isolated ENG, surface plasmon resonance (SPR) methodology (Biacore™ instrument) was used to screen for binding of captured proteins comprising the full-length extracellular domain of ENG to a variety of soluble human TGF-β family ligands.

hENG(26-437)-hFc = biological target: T2, hENG(26-437)-hFc (human, UniProt P17813 26-437); test: SPR ligand screen; '-' = Binding undetectable
T2 construct: HEK 293, purified; not shown: linker and human IgG1 Fc domain
T2 sequence: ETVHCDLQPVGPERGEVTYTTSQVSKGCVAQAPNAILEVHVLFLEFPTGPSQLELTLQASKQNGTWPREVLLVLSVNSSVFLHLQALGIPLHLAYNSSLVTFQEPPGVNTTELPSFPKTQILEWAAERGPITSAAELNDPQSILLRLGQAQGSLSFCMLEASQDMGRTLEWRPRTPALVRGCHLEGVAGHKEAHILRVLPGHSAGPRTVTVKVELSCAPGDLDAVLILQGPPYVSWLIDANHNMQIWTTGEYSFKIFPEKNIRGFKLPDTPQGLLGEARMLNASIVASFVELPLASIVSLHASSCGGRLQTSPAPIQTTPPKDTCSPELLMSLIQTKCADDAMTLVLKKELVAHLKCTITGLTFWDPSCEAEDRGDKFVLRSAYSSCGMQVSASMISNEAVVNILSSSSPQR

BMP5 = biological target: B13; test: SPR (Biacore), ligand amine-coupled to CM5 chip, Fc fusion injected
BMP10 [1] = biological target: T3, BMP10 (human, UniProt O95393 317-424); test: SPR, captured hENG-hFc, soluble BMP10; '-' = Binding undetectable
T3 construct: also called hBMP-10; hBMP10
T3 sequence: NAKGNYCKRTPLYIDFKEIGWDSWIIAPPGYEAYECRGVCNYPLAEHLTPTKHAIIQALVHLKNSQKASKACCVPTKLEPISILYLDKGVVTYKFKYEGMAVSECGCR
Experimental: (§1) SPR methodology was used to screen these hENG-hFc protein variants for high-affinity binding to human BMP9 and BMP10. In these experiments, captured hENG-hFc proteins were exposed to soluble BMP9 or BMP10 at 100 nM each.

BMP9 [2] = biological target: T4, BMP9 (human, UniProt Q9UK05 320-429); test: SPR, captured hENG-hFc, soluble BMP9; '-' = Binding undetectable
T4 construct: also called hBMP-9; hBMP9
T4 sequence (looked up): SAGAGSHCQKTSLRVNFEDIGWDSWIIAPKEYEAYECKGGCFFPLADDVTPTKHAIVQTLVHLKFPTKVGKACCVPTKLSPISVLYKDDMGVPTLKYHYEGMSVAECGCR
Experimental: as §1

BMP9 [3] = biological target: T4, BMP9; test: SPR (Biacore), ligand amine-coupled to CM5 chip, Fc fusion injected
BMP10 [4] = biological target: T3, BMP10; test: as above
BMP6 = biological target: T5, BMP6 (human, UniProt P22004 382-513, limits assumed); test: as above
T5 sequence (looked up): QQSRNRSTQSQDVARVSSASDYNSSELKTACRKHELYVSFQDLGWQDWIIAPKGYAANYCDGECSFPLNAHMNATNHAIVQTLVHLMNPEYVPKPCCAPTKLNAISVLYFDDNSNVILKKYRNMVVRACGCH

BMP10pro(22-315)-mFc = biological target: T6, BMP10pro(22-315)-mFc (human, UniProt O95393 22-315); test: SPR (Biacore), BMP10pro-Fc captured by anti-Fc antibody, ligand injected
T6 construct: also called mouse Fc equivalent construct; not shown: optional linker and mouse immunoglobulin G1 Fc domain
T6 sequence: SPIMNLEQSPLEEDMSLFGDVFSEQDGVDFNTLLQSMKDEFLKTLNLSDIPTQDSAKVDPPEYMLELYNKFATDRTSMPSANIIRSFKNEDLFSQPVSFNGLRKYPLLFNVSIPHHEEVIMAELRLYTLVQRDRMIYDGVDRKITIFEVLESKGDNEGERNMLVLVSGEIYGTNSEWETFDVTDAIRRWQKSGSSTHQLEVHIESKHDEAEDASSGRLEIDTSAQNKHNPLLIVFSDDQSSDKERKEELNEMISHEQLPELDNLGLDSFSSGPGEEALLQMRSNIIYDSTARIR
Experimental: (§2) The BMP10pro-Fc proteins were separately was captured onto the system using an anti-Fc antibody, and ligands were injected and allowed to flow over the captured receptor protein. […] The mouse Fc equivalent constructs behaved similarly. […] The affinity of BMP10pro(22-315)-hFc for BMP3b was not assessed.

BMP10pro(22-312)-mFc = biological target: T7, BMP10pro(22-312)-mFc (human, UniProt O95393 22-312); test: as above
T7 construct: also called mouse Fc equivalent construct; not shown: optional linker and mouse immunoglobulin G1 Fc domain
T7 sequence: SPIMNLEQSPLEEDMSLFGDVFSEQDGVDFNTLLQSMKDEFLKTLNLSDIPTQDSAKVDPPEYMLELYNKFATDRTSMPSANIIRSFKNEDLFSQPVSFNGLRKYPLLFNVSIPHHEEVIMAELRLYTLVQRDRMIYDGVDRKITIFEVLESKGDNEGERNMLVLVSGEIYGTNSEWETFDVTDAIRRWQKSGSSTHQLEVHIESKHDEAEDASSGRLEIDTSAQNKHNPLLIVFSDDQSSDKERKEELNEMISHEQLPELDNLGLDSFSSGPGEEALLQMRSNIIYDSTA
Experimental: as §2

binding result (hENG(26-586)): no binding (tested: 25 nM)
binding result (hENG(26-437)-hFc): no binding (tested: 100 nM)
B1: BMP7 (ligand, human, UniProt P18075 293-431, looked up)
chain: STGSKQRSQNRSKTPKNQEALRMANVAENSSSDQRQACKKHELYVSFRDLGWQDWIIAPEGYAAYYCEGECAFPLNSYMNATNHAIVQTLVHFINPETVPKPCCAPTQLNAISVLYFDDSSNVILKKYRNMVVRACGCH
notes: also called hBMP-7

binding result (BMP5): binds
B2: ActRIIB-mFc (Fc fusion, not shown: a dimerising Fc or GST)
chain: GRGEAETRECIYYNANWELERTNQSGLERCEGEQDKRLHCYASWRNSSGTIELVKKGCWLDDFNCYDRQECVATEENPQVYFCCCEGNFCNERFTHLPEAGGPEVTYEPPPTAPT

binding result (hENG(26-586)): no binding (tested: 25 nM)
binding result (hENG(26-437)-hFc): no binding (tested: 100 nM)
B3: activin A (ligand, human, UniProt P08476 311-426, looked up)
chain: GLECDGKVNICCKKQFFVSFKDIGWNDWIIAPSGYHANYCEGECPSHIAGTSGSSLSFHSTVINHYRMRGHSPFANLKSCCVPTKLRPMSMLYYDDGQNIIKKDIQNMIVEECGCS
notes: also called hActivin A

binding result (hENG(26-586)): no binding (tested: 25 nM)
binding result (hENG(26-437)-hFc): no binding (tested: 100 nM)
B4: BMP2 (ligand, human, UniProt P12643 283-396, looked up)
chain: QAKHKQRKRLKSSCKRHPLYVDFSDVGWNDWIVAPPGYHAFYCHGECPFPLADHLNSTNHAIVQTLVNSVNSKIPKACCVPTELSAISMLYLDENEKVVLKNYQDMVVEGCGCR
notes: also called hBMP-2

binding result (hENG(26-586)): no binding (tested: 25 nM)
binding result (hENG(26-437)-hFc): no binding (tested: 100 nM)
B5: hBMP-2/7 (ligand, human)
chain 1: QAKHKQRKRLKSSCKRHPLYVDFSDVGWNDWIVAPPGYHAFYCHGECPFPLADHLNSTNHAIVQTLVNSVNSKIPKACCVPTELSAISMLYLDENEKVVLKNYQDMVVEGCGCR
chain 2: STGSKQRSQNRSKTPKNQEALRMANVAENSSSDQRQACKKHELYVSFRDLGWQDWIIAPEGYAAYYCEGECAFPLNSYMNATNHAIVQTLVHFINPETVPKPCCAPTQLNAISVLYFDDSSNVILKKYRNMVVRACGCH

binding result (BMP10 [1]): no binding (tested: 100 nM)
binding result (BMP9 [2]): no binding (tested: 100 nM)
B6: hENG(360-437)-hFc (Fc fusion)
chain: QTKCADDAMTLVLKKELVAHLKCTITGLTFWDPSCEAEDRGDKFVLRSAYSSCGMQVSASMISNEAVVNILSSSSPQR
notes: Expressed in COS cells, not purified; not shown: linker and human IgG1 Fc domain

binding result (BMP10 [1]): no binding (tested: 100 nM)
binding result (BMP9 [2]): no binding (tested: 100 nM)
B7: hENG(258-346)-hFc (Fc fusion)
chain: YVSWLIDANHNMQIWTTGEYSFKIFPEKNIRGFKLPDTPQGLLGEARMLNASIVASFVELPLASIVSLHASSCGGRLQTSPAPIQTTPP
notes: HEK 293, purified; not shown: linker and human IgG1 Fc domain

binding result (BMP10 [1]): no binding (tested: 100 nM)
binding result (BMP9 [2]): no binding (tested: 100 nM)
B8: hENG(360-457)-hFc (Fc fusion)
chain: QTKCADDAMTLVLKKELVAHLKCTITGLTFWDPSCEAEDRGDKFVLRSAYSSCGMQVSASMISNEAVVNILSSSSPQRKKVHCLNMDSLSFQLGLYLS
notes: as for B6

binding result (BMP5): no binding
binding result (BMP9 [3]): binds
binding result (BMP10 [4]): binds
binding result (BMP6): no binding
B9: ALK1-mFc (Fc fusion, mouse, UniProt Q61288 23-119, looked up)
chain: DLAKPSKLVNCTCESPHCKRPFCQGSWCTVVLVREQGRHPQVYRGCGSLNQELCLGRPTEFLNHHCCYRSFCNHNVSLMLEATQTPSEEPEVDAHLP
notes: extracellular domain; Mouse ALK1 fused to a murine Fc domain with a linker; also called mALK1-mFc; not shown: linker and murine Fc domain

binding result (hENG(26-586)): no binding (tested: 25 nM)
binding result (hENG(26-437)-hFc): no binding (tested: 100 nM)
B10: TGF-β2 (ligand, human, UniProt P61812 303-414, looked up)
chain: ALDAAYCFRNVQDNCCLRPLYIDFKRDLGWKWIHEPKGYNANFCAGACPYLWSSDTQHSRVLSLYNTINPEASASPCCVSQDLEPLTILYYIGKTPKIEQLSNMIVKSCKCS
notes: also called hTGF-β2

Kd (BMP5): 2.92 nM
Kd (BMP9 [3]): 0.0335 nM
Kd (BMP10 [4]): 0.0173 nM
Kd (BMP6): 0.164 nM
B11: ActRIIB-hFc (Fc fusion)
chain: GRGEAETRECIYYNANWELERTNQSGLERCEGEQDKRLHCYASWRNSSGTIELVKKGCWLDDFNCYDRQECVATEENPQVYFCCCEGNFCNERFTHLPEAGGPEVTYEPPPTAPTGGGTHTCPPCPAPELLGGPSVFLFPPKPKDTLMISRTPEVTCVVVDVSHEDPEVKFNWYVDGVEVHNAKTKPREEQYNSTYRVVSVLTVLHQDWLNGKEYKCKVSNKALPVPIEKTISKAKGQPREPQVYTLPPSREEMTKNQVSLTCLVKGFYPSDIAVEWESNGQPENNYKTTPPVLDSDGSFFLYSKLTVDKSRWQQGNVFSCSVMHEALHNHYTQKSLSLSPGK
notes: Extracellular domain of human ActRIIB, linker, human Fc

binding result (hENG(26-586)): no binding (tested: 25 nM)
binding result (hENG(26-437)-hFc): no binding (tested: 50 nM)
B12: TGF-β3 (ligand, human, UniProt P10600 301-412, looked up)
chain: ALDTNYCFRNLEENCCVRPLYIDFRQDLGWKWVHEPKGYYANFCSGPCPYLRSADTTHSTVLGLYNTLNPEASASPCCVPQDLEPLTILYYVGRTPKVEQLSNMVVKSCKCS
notes: also called hTGF-β3

Binder: B13
binding result (BMP10pro(22-315)-mFc): binds
binding result (BMP10pro(22-312)-mFc): binds
